From patent US9890409B2, “Composition for astringin product” (INDUSTRY FOUNDATION OF CHONNAM NATIONAL UNIVERSITY, priority 2015, dated 2018)

Test: Oxidation of polydatin to astringin (3′-hydroxylation), steady-state kinetics by HPLC
Type: biochemical
Conditions: polydatin as substrate, NADPH-generating system, 37° C., 30 minutes, 100 mM potassium phosphate buffer pH 7.4
Description: P450 BM3 50 pmol and […] of polydatin as a substrate were added to 0.25 ml of 100 mM potassium phosphate buffer (pH 7.4) to perform a typical steady-state reaction. In order to start the reaction, the NADPH-generating system (10 mM glucose 6-phosphate, 0.5 mM NADP^+ and 1 IU yeast glucose 6-phosphate-dihydrogenase per 1 ml of final concentration) was added. 20 mM polydatin solution was prepared with DMSO, and diluted with an enzyme reaction solution, thereby preparing a reaction mixture so that the final organic solvent has a concentration of 1%/(v/v) or less. The solution was reacted at 37° C. for 30 minutes, and the reaction was terminated with ethyl-acetate which is cooled by using ice with twice amount.
The reaction mixture was centrifuged, the supernatant was […]. Then, the solvent was evaporated under a nitrogen gas, and analyzed by HPLC. A sample (30 μl) was injected into Gemini C18 column (4.6 mm×150 mm, 5 μm, Phenomenex, Torrance, Calif.). […] The mobile phase flowed at a rate of 1 ml/minute and an eluent was measured by 320 nm of UV.
In order to examine whether polydatin is oxidized by CYP102A1(P450 BM3), oxidativity of polydatin was measured at a substrate concentration fixed to be 1000 μM in the P450 wild-type CYP102A1, the CYP102A1 mutant, the CYP102A1 chimera, and the mutant of CYP102A1 chimera. […]

B1: M16V3: chimera protein: heme domain of CYP102A1 Mutant#16 (R47L/F81I/F87V/E143G/L188Q/E267V) fused with reductase domain of natural variant CYP102A1.3 (protein)
chain: TIKEMPQPKTFGELKNLPLLNTDKPVQALMKIADELGEIFKFEAPGLVTRYLSSQRLIKEACDESRFDKNLSQALKFVRDFAGDGIVTSWTHEKNWKKAHNILLPSFSQQAMKGYHAMMVDIAVQLVQKWERLNADEHIEVPGDMTRLTLDTIGLCGFNYRFNSFYRDQPHPFITSMVRALDEAMNKQQRANPDDPAYDENKRQFQEDIKVMNDLVDKIIADRKASGEQSDDLLTHMLNGKDPETGEPLDDENIRYQIITFLIAGHVTTSGLLSFALYFLVKNPHVLQKAAEEAARVLVDPVPSYKQVKQLKYVGMVLNEALRLWPTAPAFSLYAKEDTVLGGEYPLEKGDELMVLIPQLHRDKTIWGDDVEEFRPERFENPSAIPQHAFKPFGNGQRACIGQQFALHEATLVLGMMLKHFDFEDHTNYELDIKETLTLKPEGFVVKAKSKKIPLGGIPSPSTEQSAKKVRKKVENAHNTPLLVLYGSNMGTAEGTARDLADIAMSKGFAPQVATLDSHAGNLPREGAVLIVTASYNGHPPDNAKQFVDWLDQASADDVKGVRYSVFGCGDKNWATTYQKVPAFIDETLAAKGAENIADRGEADASDDFEGTYEEWREHMWSDVAAYFNLDIENSEDNKSTLSLQFVDSAADMPLAKMHGAFSANVVASKELQQLGSERSTRHLEIALPKEASYQEGDHLGVIPRNYEGIVNRVTARFGLDASQQIRLEAEEEKLAHLPLGKTVSVEELLQYVELQDPVTRTQLRAMAAKTVCPPHKVELEALLEKQAYKEQVLAKRLTMLELLEKYPACEMEFSEFIALLPSISPRYYSISSSPHVDEKQASITVSVVSGEAWSGYGEYKGIASNYLANLQEGDTITCFVSTPQSGFTLPKDSETPLIMVGPGTGVAPFRGFVQARKQLKEQGQSLGEAHLYFGCRSPHEDYLYQEELENAQNEGIITLHTAFSRVPNQPKTYVQHVMERDGKKLIELLDQGAHFYICGDGSQMAPDVEATLMKSYADVYEVSEADARLWLQQLEEKGRYAKDVWAG
modifications: CYP102A1 chimeric protein M16V3 aa seq
kcat, astringin formation: 0.25 ± 0.03 min⁻¹
Km (read-out: Km, astringin formation): 390 ± 111 µM
